What was measured:
arfp2_human ARFIP2 = molecular target: T1, arfp2_human ARFIP2 (UniProt P53365)
T1 sequence: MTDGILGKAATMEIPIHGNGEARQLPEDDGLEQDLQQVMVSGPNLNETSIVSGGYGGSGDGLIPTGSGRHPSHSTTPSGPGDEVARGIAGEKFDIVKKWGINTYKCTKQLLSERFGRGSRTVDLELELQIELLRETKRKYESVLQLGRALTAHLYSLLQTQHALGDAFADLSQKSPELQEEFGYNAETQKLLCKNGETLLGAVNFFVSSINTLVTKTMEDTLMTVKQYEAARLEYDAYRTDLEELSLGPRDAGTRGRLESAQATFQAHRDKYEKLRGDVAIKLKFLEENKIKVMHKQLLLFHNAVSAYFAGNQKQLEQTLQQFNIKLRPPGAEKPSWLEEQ

ste20_yeast STE20 = molecular target: T2, ste20_yeast STE20 (UniProt Q03497)
T2 sequence: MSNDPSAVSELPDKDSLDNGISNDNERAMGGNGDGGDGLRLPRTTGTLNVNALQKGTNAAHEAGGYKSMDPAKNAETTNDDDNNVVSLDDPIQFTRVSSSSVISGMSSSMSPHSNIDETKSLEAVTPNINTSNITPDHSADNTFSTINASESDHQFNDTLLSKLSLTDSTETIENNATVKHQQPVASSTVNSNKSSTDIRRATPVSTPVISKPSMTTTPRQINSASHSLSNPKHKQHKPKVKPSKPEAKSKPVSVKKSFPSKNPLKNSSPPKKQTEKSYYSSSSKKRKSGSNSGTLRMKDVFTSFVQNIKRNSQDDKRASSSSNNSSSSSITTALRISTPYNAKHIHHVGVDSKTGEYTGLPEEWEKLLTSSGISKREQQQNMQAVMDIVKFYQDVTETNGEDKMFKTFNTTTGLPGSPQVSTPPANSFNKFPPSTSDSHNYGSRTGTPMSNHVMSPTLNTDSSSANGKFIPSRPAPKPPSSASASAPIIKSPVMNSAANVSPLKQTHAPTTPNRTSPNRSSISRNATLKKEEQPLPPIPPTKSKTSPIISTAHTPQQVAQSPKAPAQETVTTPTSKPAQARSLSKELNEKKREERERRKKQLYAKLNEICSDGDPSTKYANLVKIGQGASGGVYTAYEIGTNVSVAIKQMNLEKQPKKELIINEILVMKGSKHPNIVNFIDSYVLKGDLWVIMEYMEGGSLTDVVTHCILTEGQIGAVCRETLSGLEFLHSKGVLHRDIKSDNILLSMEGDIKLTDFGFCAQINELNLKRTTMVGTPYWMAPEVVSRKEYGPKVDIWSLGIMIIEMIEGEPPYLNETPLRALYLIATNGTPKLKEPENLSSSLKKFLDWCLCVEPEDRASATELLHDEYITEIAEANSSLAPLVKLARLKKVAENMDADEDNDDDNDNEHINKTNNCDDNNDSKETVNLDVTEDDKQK

| Substance | effect of a mutation on the interaction (arfp2_human ARFIP2) | effect of a mutation on the interaction (ste20_yeast STE20) |
| --- | --- | --- |
| Ras-related C3 botulinum toxin substrate 1 (Homo sapiens) (from UniProt P63000) T35A | decreasing interaction |  |
| Ras-related C3 botulinum toxin substrate 1 (Homo sapiens) (from UniProt P63000) G12V |  | increasing interaction |
